Laboratory results taken from patent US20040009913A1, “Use of serum response factor (srf) modulator for treating srf related diseases” (priority 2000, published 2004).

Legend:
monolayer ES cells = test: In vitro differentiation of monolayer ES cells, RT-PCR of differentiation marker genes; format: cell-based, mouse; conditions: SRF-containing (Srf(−/+)) ES cells in monolayer, LIF withdrawal plus agent
Procedure: In vitro differentiation conditions. For differentiation experiments, cells were seeded in monolayers on gelatin-coated dishes and kept overnight in complete medium. The first day after seeding was defined to be day 0 of differentiation. The medium was then exchanged by complete medium lacking LIF or complete medium without LIF, but containing either 0.8% dimethylsulfoxide (DMSO) or 5×10^−7 M all-trans RA, respectively. Medium was exchanged daily and cells were harvested at the indicated time points for RT-PCR analysis. The vitality was determined by trypan blue staining. The vitality of detached cells was less than 5%.
Total RNA preparation (RNeasy kit, QUIAGEN) and first strand cDNA synthesis (Superscript II, Gibco) were done according to the manufacturers protocols. 1 μg of total RNA treated with DNAse I was used for reverse transcription. […] For quantitative analysis, SYBR Green PCR technology was used (Perkin Elmer). Real time detection of the PCR product was monitored by measuring the increase in fluorescence caused by the binding of SYBR Green to double-stranded DNA with ABI PRISM 7700 Sequence Detector. In order to do relative quantification, a threshold cycle (Ct), the cycle at which a statistically significant increase in fluorescence occurs, was derived from the resulting PCR profiles of each sample. […] The relative quantitation value is expressed as […]. […]

Srf(−/−) ES cells = test: F-actin / stress fiber immunofluorescence and cell morphology after transient transfection of ES cells; format: cell-based, mouse
Procedure: Alternatively, the cells were grown on gelatine-coated coverslips in complete growth medium for 48 hours, or as EBs in droplets for up to 8 days. The samples were then fixed in 4% formaldehyde and permeabilized in 0.2% Triton-X 100. Non-specific binding was blocked by incubating the cells for one hour in 1% BSA in PBS at 37° C. before staining with primary antibodies for 1 hour at 37° C. Incubation with fluorescence conjugated secondary antibodies (Molecular Probes, 1:200 in 0.2% BSA) was performed for 30 min at 37° C. To visualize filamentous actin, 1 unit Oregon-green phalloidin was included into the mixture. Coverstips were washed four times with PBS, once in water, air-dried and mounted in Moviol. Image acquisition was done with LSM 510 (Zeiss).
(C) SRF-VP16 expression leads to increased stress fiber formation. […] ES cells were transiently transfected with SRF-VP16 (upper panel) and the SRF-M-VP16 control construct (lower panel) and processed for immunofluorescence analysis three days later. […]
SRF-VP16 fusion proteins were previously used to drive SRF-dependent transcription independent of upstream signalling cascades (Hines et al., 1999; Johansen and Prywes, 1994;Treisman et al., 1992). […] Undifferentiated ES cells were transiently transfected with SRF-VP16 and SRF M-VP16 expression vectors, and RNA expression levels were measured by quantitative RT-PCR (FIG. 17B). […]

In the case of `C[S+](C)[O-]` [DMSO, dimethylsulfoxide], the “timing of mesodermal marker gene induction versus LIF withdrawal alone” value (monolayer ES cells) is reported as “earlier induction”.

B1: zyxin: focal adhesion protein transiently overexpressed in Srf(−/−) ES cells (protein, UniProt Q15942 2-572, looked up)
Zyxin: AAPRPSPAISVSVSAPAFYAPQKKFGPVVAPKPKVNPFRPGDSEPPPAPGAQRAQMGRVGEIPPPPPEDFPLPPPPLAGDGDDAEGALGGAFPPPPPPIEESFPPAPLEEEIFPSPPPPPEEEGGPEAPIPPPPQPREKVSSIDLEIDSLSSLLDDMTKNDPFKARVSSGYVPPPVATPFSSKSSTKPAAGGTAPLPPWKSPSSSQPLPQVPAPAQSQTQFHVQPQPQPKPQVQLHVQSQTQPVSLANTQPRGPPASSPAPAPKFSPVTPKFTPVASKFSPGAPGGSGSQPNQKLGHPEALSAGTGSPQPPSFTYAQQREKPRVQEKQHPVPPPAQNQNQVRSPGAPGPLTLKEVEELEQLTQQLMQDMEHPQRQNVAVNELCGRCHQPLARAQPAVRALGQLFHIACFTCHQCAQQLQGQQFYSLEGAPYCEGCYTDTLEKCNTCGEPITDRMLRATGKAYHPHCFTCVVCARPLEGTSFIVDQANRPHCVPDYHKQYAPRCSVCSEPIMPEPGRDETVRVVALDKNFHMKCYKCEDCGKPLSIEADDNGCFPLDGHVLCRKCHTARAQT
In the case of B1, the “rescue of defective actin cytoskeleton” value (Srf(−/−) ES cells; transient overexpression in Srf(−/−) ES cells) is reported as “did not rescue the defective actin cytoskeleton”.

B2: wildtype SRF protein: wildtype serum response factor reintroduced by expression vector (protein, UniProt P11831 1-508, looked up)
Serum response factor: MLPTQAGAAAALGRGSALGGSLNRTPTGRPGGGGGTRGANGGRVPGNGAGLGPGRLEREAAAAAATTPAPTAGALYSGSEGDSESGEEEELGAERRGLKRSLSEMEIGMVVGGPEASAAATGGYGPVSGAVSGAKPGKKTRGRVKIKMEFIDNKLRRYTTFSKRKTGIMKKAYELSTLTGTQVLLLVASETGHVYTFATRKLQPMITSETGKALIQTCLNSPDSPPRSDPTTDQRMSATGFEETDLTYQVSESDSSGETKDTLKPAFTVTNLPGTTSTIQTAPSTSTTMQVSSGPSFPITNYLAPVSASVSPSAVSSANGTVLKSTGSGPVSSGGLMQLPTSFTLMPGGAVAQQVPVQAIQVHQAPQQASPSRDSSTDLTQTSSSGTVTLPATIMTSSVPTTVGGHMMYPSPHAVMYAPTSGLGDGSLTVLNAFSQAPSTMQVSHSQVQEPGGVPQVFLTASSGTVQIPVSAVQLHQMAVIGQQAGSSSNLTELQVVNLDTAHSTKSE
In the case of B2, the “effects on gene expression and cytoskeletal rearrangements” value (Srf(−/−) ES cells; reintroduction by transient transfection) is reported as “only minor effects”.
